Experimental data as given in paper PMC7660924, “NIGT1 family proteins exhibit dual mode DNA recognition to regulate nutrient response-associated genes in Arabidopsis” (PLoS Genetics, 2020).
Changes are numbered by the printed parent chain.

T1: NIGT1.1 L25A/L39A L25A;L39A (Arabidopsis thaliana (Col-0?)) (UniProt Q9FPE8)
T1 sequence: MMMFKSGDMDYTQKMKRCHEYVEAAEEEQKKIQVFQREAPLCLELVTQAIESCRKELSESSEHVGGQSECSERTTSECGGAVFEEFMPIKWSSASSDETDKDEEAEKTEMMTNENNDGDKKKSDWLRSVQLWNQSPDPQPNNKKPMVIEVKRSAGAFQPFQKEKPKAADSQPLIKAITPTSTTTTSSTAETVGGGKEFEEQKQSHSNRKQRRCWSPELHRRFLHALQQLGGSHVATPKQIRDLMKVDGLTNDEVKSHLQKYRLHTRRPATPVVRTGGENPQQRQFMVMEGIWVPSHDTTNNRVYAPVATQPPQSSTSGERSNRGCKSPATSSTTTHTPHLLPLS

T2: NIGT1.1 WT (Arabidopsis thaliana (Col-0?)) (UniProt Q9FPE8)
T2 sequence: T1 sequence with A25L, A39L

B1: Trx-6×His-NIGT1.1^WT-6×His recombinant protein (natural protein, Arabidopsis thaliana, UniProt Q9FPE8 1-344, looked up)
chain: T1 sequence with A25L, A39L
notes: NIGT1.1, Arabidopsis thaliana, At1g25550; cDNA encoding NIGT1.1^WT cloned into pET32-b(+) by NcoI and HindIII; expected mass of the recombinant protein 57.4 kDa; Plasmid pET32-NIGT1.1; also called recombinant NIGT1.1^WT; Trx-6×His-NIGT1.1-6×His; not shown: Trx, N-terminal, kept; 6×His, N-terminal, kept; 6×His, C-terminal, kept

How the values were obtained:
[1] = biological target: T1, NIGT1.1 L25A/L39A L25A;L39A (Arabidopsis thaliana (Col-0?)); assay: EMSA; conditions: EMSA: 15 ul reaction, 40 fmol biotin-labeled probe, 7.5-60 ng protein, 4% polyacrylamide gel; buffer, salt, pH and temperature not given (as in ref 24)
[2] = biological target: T2, NIGT1.1 WT (Arabidopsis thaliana (Col-0?)); assay: EMSA; conditions: EMSA: 15 ul reaction, 40 fmol biotin-labeled probe, 7.5-60 ng protein, 4% polyacrylamide gel; buffer, salt, pH and temperature not given (as in ref 24)
[3] = biological target: the molecule itself; assay: SEC-MALS; Shodex PROTEIN LW-803 column; 20 mM Tris-HCl (pH 7.5), 500 mM NaCl, 10% glycerol, room temperature; 1 mg/ml, 70 μl loaded; 0.8 ml/min

Molecule | binding [1] | binding [2] | stoichiometry N [3]
AATATTTAAATCGATAGTTAACCGTTGAGAATCTCCAAAGAATGCTTTTTTCATTGTCAACACTGGCTAGGAACCCTATATAAGCCATCGTGTGATTAATATTCAGACATCGCATGGTCATAGCTGTTTCCTGTGT (double strand) [P3-2] | binds more weakly | no binding | –
AATGAATTAAGACGCGAATCGGGAAAATTCAATAAATTGTCCATTGGGGGGTGCTTTAAAGAAAGATTGAAAGATGCCGAGGTTTATACCCTTTTCCTATCAAGAATATTCCATGGAATCCAACTACTTTTGACCCATTTGCGTATTTGTTAAATCTTTTCAGAAAATCAAAAGTGGGTAAATTGTCAAACTAGTTGTAGTATTGAACTACTATTTATTGATCATGCCATCATCCATGGTCATAGCTGTTTCCTGTGT (double strand) [P1 (SPX1 promoter)] | binds more weakly | binds | –
ACACAGGAAACAGCTATGACCATGAGCTCTTTTATTTTCTGGGAAACTTAAGTGAGAATGATGAATGAAGAAGAAAGAGAGGGGGAAGAGGTTTAGAGATATAAAAGGGATTAAAAAGAATATTCTTAAGGTTTCTAATTAGAATATCCTTTTTTCTCTGTCTTTCTTTCGGGAGAATATCTTCCTTTTATTCCTTTCTTATTTATTACTTTTTCGTGGTTATCTGTGGGTGAGATTATAACACATGCCTATGTCAGTTCATAAATATCAATCACAACTC (double strand) [P2 (SPX1 promoter)] | binds more weakly | binds | –
ACACAGGAAACAGCTATGACCATGCAACGGTTAACTATCGATTTAAATATTAATTTTCGAGGAATCCATTTTCGCCGCAAGCATCTTCCTAGTCTCTCGCTTATCACCAAAGGTTGCCGATATCCTTCCAAATGACCGCTCTACCCTTCCCTCATCTTGC (double strand) [P3-1] | binds more weakly | no binding | –
ACACAGGAAACAGCTATGACCATGCGATGTCTGAATATTAATCACACGATGGCTTATATAGGGTTCCTAGCCAGTGTTGACAATGAAAAAAGCATTCTTTGGAGATTCTCAACGGTTAACTATCGATTTAAATATTAATTTTCGAGGAATCCATTTTCGCCGCAAGCATCTTCCTAGTCTCTCGCTTATCACCAAAGGTTGCCGATATCCTTCCAAATGACCGCTCTACCCTTCCCTCATCTTGC (double strand) [P3 (NRT2.1 promoter)] | binds more weakly | binds | –
B1 | – | – | 2
